Results taken from patent US20200199244A1 (published 2020).
Changes are numbered by the printed parent chain.

B1: BMS3h-112 (other)
VH: EVQLLESGGGLVQPGGSLRLSCAASGFTFGESDMKWVRQAPGKGLEWVSSISPNGWDTYYADSVKGRFTISRDNSKNTLYLQMNSLRAEDTAVYYCAKSPSSRLKFDYWGQGTLVTVSS
B2: BMS3h-52 (other)
VH: EVQLLESGGGLVQPGESLRLSCAASGFTFSAYDMTWVRQAPGKGLEWVSRINPTGSYTYYADSVKGRFTISRDNSKNTLYLQMNSLRAEDTAVYYCAKAKIPNLVFDYWGQGTLVTVSS
B3: BMS3h-61 (other)
VH: EVQLLESGGGLVQPGGSLRLSCAASGFTFGTTEMAWVRQAPGKGLEWVSSIGSAGAWTYYADSVKGRFTISRDNSKNTLYLQMNSLRAEDTAVYYCAKIGGHPQGQFDYWGQGTLVTVSS
B4: BMS3h-207 (other)
VH: EVQLLESGGGLVQPGGSLRLSCAASGFTFSNQDMTWVRQAPGKGLEWVSSIDSSGQLTYYADSVKGRFTISRDNSKNTLYLQMNSLRAEDTAVYYCAKVKSLARFDYWGQGTLVTVSS
B5: BMS3h-131-6 (other)
VL: DIQMTVSPSSLSASVGDRVTITCRANSSILWALAWYQQKPGKAPKLLIESSSGLQSGVPSRFSGSGSGTDFTLTISSLQPEDFATYYCVQNAVWPGTFGQGTKVEIKR
B6: BMS3h-131-14 (other)
VL: B5 VL with V6Q, S67T, S77G, G99D
B7: BMS3h-5 (other)
VH: EVQLLESGGGLVQPGGSLRLSCAASGFTFDEHDMSWVRQAPGKGLEWVSRIGPDGFHTYYADSVKGRFTISRDNSKNTLYLQMNSLRAEDTAVYYCAKGRIPTLHFDYWGQGTLVTVSS
B8: BMS3h-102 (other)
VH: B7 VH with D30S, H32A, D33E, S35N, G52T, P53T, F56D, H57S
B9: BMS3h-193 (other)
VL: DIQMTQSPSSLSASVGDRVTITCRASQTIERRLNWYQQKPGKAPKLLIYLASRLQSGVPSRFSGSGSGTDFTLTISSLQPEDFATYYCHQYASPPLTFGQGTKVEIKR
B10: BMS3h-193-12 (other)
VL: B9 VL with A92E
B11: BMS3h-193-19 (other)
VL: B9 VL with D70E, A92E
B12: BMS3h-193-16 (other)
VL: B9 VL with T28A, F98L
B13: BMS3h-57 (other)
VH: EVQLLESGGGLVQPGGSLRLSCAASGFTFSHEDMTWVRQAPGKGLEWVSSISPNGWDTYYADSVKGRFTISRDNSKNTLYLQMNSLRAEDTAVYYCAKRTRSKFDYWGQGTLVTVSS
B14: BMS3h-208 (other)
VH: B13 VH with S30P, H31E, E32S, T35K, R99P, T100A, R101Q, S102V, K103L
B15: BMS3h-88 (other)
VH: EVQLLESGGGLVQPGGSLRLSCAASGFTFHETEMTWVRQAPGKGLEWVSAINRLGQDTYYADSVKGRFTISRDNSKNTLYLQMNSLRAEDTAVYYCAKGRIPGLVFDYWGQGTLVTVSS
B16: BMS3h-48 (other)
VH: EVQLLESGGGLVQPGGSLRLSCAASGFTFADHGMTWVRQAPGKGLEWVSGIGPSGEATYYADSVKGRFTISRDNSKNTLYLQMNSLRAEDTAVYYCAKDRIPNLVFDYWGQGTLVTVSS
B17: BMS3h-28 (other)
VH: EVQLLESGGGLVQPGGSLRLSCAASGFTFGDVPMSWVRQAPGKGLEWVSRIDPYGSNTYYADSVKGRFTISRDNSKNTLYLQMNSLRAEDTAVYYCAKGIMPSLTFDYWGQGTLVTVSS
B18: BMS3h-8 (other)
VH: EVQLLESGGGLVQPGGSLRLSCAASGFTFPSEEMSWVRQAPGKGLEWVSRISADGANTYYADSVKGRFTISRDNSKNTLYLQMNSLRAEDAAVYYCAKGRVPDLLFDYWGQGTLVTVSS
B19: BMS3h-33 (other)
VH: EVQLLESGGGLVQPGGSLRLSCAASGFTFLSYPMHWVRQAPGKGLEWVSSIDSRGSVTYYADSVKGRFTISRDNSKNTLYLQMNSLRAEDTAVYYCAKGHSWTFDYWGQGTLVTVSS
B20: BMS3h-56-8 (other)
VH: EVQLLESGGGLVQPGGSRRLSCAASGFTFRDYEMWWVRQAPGKGLERVSAINPQGTRTYYADSVKGRFTISRDNSKNTLYLQMNSLRAEDTAVYYCAKLPFTFEDWGQGTLVTVSS
B21: BMS3h-56-9 (other)
VH: B20 VH with R18L, K65M, T102M, E104D, W106R
B22: BMS3h-56-19 (other)
VH: B20 VH with R18L, Y95H
B23: BMS3h-56-15 (other)
VH: B20 VH with R18L, Q39R
B24: BMS3h-56-21 (other)
VH: B20 VH with R18L, A97L

target: human CD40 (human, UniProt P25942 21-277); assay: cell-based or functional assay
Sequence (P25942 21-277 limits assumed): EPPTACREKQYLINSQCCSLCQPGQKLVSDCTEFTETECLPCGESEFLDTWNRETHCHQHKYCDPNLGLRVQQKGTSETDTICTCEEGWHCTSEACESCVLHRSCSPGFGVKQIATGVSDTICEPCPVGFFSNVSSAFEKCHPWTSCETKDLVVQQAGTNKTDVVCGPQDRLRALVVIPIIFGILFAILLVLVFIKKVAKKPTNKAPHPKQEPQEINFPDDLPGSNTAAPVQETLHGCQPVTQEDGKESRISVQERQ

Row | Binder | hIZCD40L-driven Human B Cell Proliferation EC50 [µM] | CHO-hCD40L-driven Human B Cell Proliferation EC50 [µM]
1 | B1 | > 7 | –
2 | B2 | > 7 | > 7
3 | B3 | > 7 | > 7
4 | B4 | > 7 | –
5 | B5 | 0.141 | –
6 | B6 | 0.024 | –
7 | B7 | > 7 | > 7
8 | B8 | > 7 | –
9 | B9 | > 7 | –
10 | B10 | 0.277 | –
11 | B11 | 0.233 | –
12 | B12 | 0.387 | –
13 | B13 | > 7 | > 7
14 | B14 | > 7 | –
15 | B15 | > 7 | –
16 | B16 | > 7 | > 7
17 | B17 | > 7 | > 7
18 | B18 | > 7 | > 7
19 | B19 | > 7 | > 7
20 | B20 | 0.005 | –
21 | B21 | 0.003 | –
22 | B22 | 0.003 | –
23 | B23 | 0.002 | –
24 | B24 | 0.002 | –
